Laboratory results published in patent US7045613 (Amgen, dated 2006).

Molecular target: T1, Human IKK-α containing an N-terminal Flag epitope tag (human, UniProt O15111 1-745)
T1 construct: Transiently expressed in 293 cells for coimmunoprecipitation; also called IκB Kinase
T1 sequence: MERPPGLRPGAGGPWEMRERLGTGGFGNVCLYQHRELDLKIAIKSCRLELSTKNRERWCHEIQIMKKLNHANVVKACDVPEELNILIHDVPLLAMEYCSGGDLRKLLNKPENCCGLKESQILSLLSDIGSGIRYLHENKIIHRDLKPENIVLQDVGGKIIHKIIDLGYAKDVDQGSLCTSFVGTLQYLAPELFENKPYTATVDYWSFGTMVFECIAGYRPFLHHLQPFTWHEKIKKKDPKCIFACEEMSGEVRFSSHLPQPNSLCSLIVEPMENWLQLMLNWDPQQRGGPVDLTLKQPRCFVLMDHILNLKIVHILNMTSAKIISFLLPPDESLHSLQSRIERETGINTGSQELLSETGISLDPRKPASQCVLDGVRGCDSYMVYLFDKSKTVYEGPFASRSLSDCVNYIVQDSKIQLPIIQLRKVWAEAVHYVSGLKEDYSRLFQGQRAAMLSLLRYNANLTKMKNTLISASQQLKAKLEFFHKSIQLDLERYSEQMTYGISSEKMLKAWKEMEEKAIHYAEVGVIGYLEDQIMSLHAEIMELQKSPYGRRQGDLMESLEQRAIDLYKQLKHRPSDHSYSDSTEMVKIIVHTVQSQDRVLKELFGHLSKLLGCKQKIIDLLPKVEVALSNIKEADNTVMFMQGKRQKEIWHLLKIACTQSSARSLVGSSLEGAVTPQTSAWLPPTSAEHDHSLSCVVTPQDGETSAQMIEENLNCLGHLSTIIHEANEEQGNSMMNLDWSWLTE
Test: coimmunoprecipitation from 293 cell lysates, anti-Flag IP, anti-HA immunoblot
Source text: Human IKK-α containing an N-terminal Flag epitope tag was transiently coexpressed in 293 human embryonic kidney cells with Myc epitope-tagged NIK or HA epitope-tagged TRAF proteins. Cell lysates were immunoprecipitated using a monoclonal antibody against the Flag epitope, and coprecipitating NIK or TRAF proteins were detected by immunoblot analysis with an anti-Myc or anti-HA monoclonal antibodies.

B1: HA epitope-tagged TRAF3 (other, UniProt Q13114 1-568, looked up, not shown: small tags and cut ends)
chain: MESSKKMDSPGALQTNPPLKLHTDRSAGTPVFVPEQGGYKEKFVKTVEDKYKCEKCHLVLCSPKQTECGHRFCESCMAALLSSSSPKCTACQESIVKDKVFKDNCCKREILALQIYCRNESRGCAEQLMLGHLLVHLKNDCHFEELPCVRPDCKEKVLRKDLRDHVEKACKYREATCSHCKSQVPMIALQKHEDTDCPCVVVSCPHKCSVQTLLRSELSAHLSECVNAPSTCSFKRYGCVFQGTNQQIKAHEASSAVQHVNLLKEWSNSLEKKVSLLQNESVEKNKSIQSLHNQICSFEIEIERQKEMLRNNESKILHLQRVIDSQAEKLKELDKEIRPFRQNWEEADSMKSSVESLQNRVTELESVDKSAGQVARNTGLLESQLSRHDQMLSVHDIRLADMDLRFQVLETASYNGVLIWKIRDYKRRKQEAVMGKTLSLYSQPFYTGYFGYKMCARVYLNGDGMGKGTHLSLFFVIMRGEYDALLPWPFKQKVTLMLMDQGSSRRHLGDAFKPDPNSSSFKKPTGEMNIASGCPVFVAQTVLENGTYIKDDTIFIKVIVDTSDLPDP
notes: Transiently coexpressed in 293 cells
- binding result: no binding

B2: HA epitope-tagged TRAF2 (other, UniProt Q12933 1-501, looked up, not shown: small tags and cut ends)
chain: MAAASVTPPGSLELLQPGFSKTLLGTKLEAKYLCSACRNVLRRPFQAQCGHRYCSFCLASILSSGPQNCAACVHEGIYEEGISILESSSAFPDNAARREVESLPAVCPSDGCTWKGTLKEYESCHEGRCPLMLTECPACKGLVRLGEKERHLEHECPERSLSCRHCRAPCCGADVKAHHEVCPKFPLTCDGCGKKKIPREKFQDHVKTCGKCRVPCRFHAIGCLETVEGEKQQEHEVQWLREHLAMLLSSVLEAKPLLGDQSHAGSELLQRCESLEKKTATFENIVCVLNREVERVAMTAEACSRQHRLDQDKIEALSSKVQQLERSIGLKDLAMADLEQKVLEMEASTYDGVFIWKISDFARKRQEAVAGRIPAIFSPAFYTSRYGYKMCLRIYLNGDGTGRGTHLSLFFVVMKGPNDALLRWPFNQKVTLMLLDQNNREHVIDAFRPDVTSSSFQRPVNDMNIASGCPLFCPVSKMEAKNSYVRDDAIFIKAIVDLTGL
notes: as for B1
- binding result: no binding
